From patent US20240318135A1

What was measured:
[1] = molecular target: MART-1 peptide on HLA-A*02:01 (human); experiment: NFAT-eGFP in TnT-TCR cells after overnight co-culture with peptide-pulsed T2 cells, FIG. 8C; full-length, on cells
[2] = molecular target: NY-ESO-1 peptide … presented by HLA*A0201 on T2 cells (human)
[3] = molecular target: HLA-A*0201-… MHC dextramer (human); experiment: flow cytometry of TnT-TCR cells stained with fluorescently-labelled pMHC dextramer and anti-CD3
[4] = molecular target: HLA-A*0201-… MHC dextramer (human); experiment: flow cytometry, serial dilutions of the target pMHC dextramer on TnT-TCR cells, pMHC-dex+ cells (% of max), three-parameter fit, n=3; the concentration is that of the dextramer
[5] = molecular target: MART-1 peptide … presented by HLA*A0201 on T2 cells (human)
[6] = molecular target: MART-1 peptide … presented by HLA*A0201 on T2 cells (human); experiment: cell-based or functional assay
[7] = molecular target: HLA-A*0201-… MHC dextramer (human); experiment: flow cytometry, serial dilutions of pMHC dextramer on TnT-TCR cells; EC50 of normalized dextramer saturation curves

Substance | difference of peptide EC50 between DMF4 and DMF5 [1] | EC50 (peptide concentration for half-maximal GFP+ cells, NFAT-GFP reporter) [2] | Q2 (percent of cells CD3+ and [..] pMHC dex+) (% (unit not given)) [3] | EC50 [4] | EC50 (peptide concentration for half-maximal GFP+ cells, NFAT-GFP reporter) [5] | fold difference in functional EC50 between DMF4 and DMF5 [6] | fold lower EC50 than DMF4 [7]
DMF5 | < 2 fold | – | – | – | – | – | –
TCR 1G4 | – | 167 nM | 96.1 | 0.0568 nM | – | – | –
TCR DMF4 | – | – | 48 | 0.267 nM | 14.2 nM | – | –
TCR DMF5 | – | – | 99.1 | 0.00692 nM | 8.13 nM | < 2 fold | 39 fold
